Test results taken from patent US20200181247A1.

Target: commercially-prepared stable A-beta42 Oligomers (SynAging SAS) (human)
Test: SPR; antibody covalently immobilized, stable A-beta42 oligomers (1 microM) injected

Chain of commercially-prepared stable A-beta42 Oligomers (SynAging SAS) (human) (peptide, as listed by the source): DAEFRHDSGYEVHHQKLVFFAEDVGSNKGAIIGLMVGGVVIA

**Q.** negative control IgG1 (antibody) was tested. Which binding response units (BRUs), mean did it give?
**A.** 2.5 BRU
